Source: US20220127633A1

Tests used:
[1] = molecular target: TIR1 receptor protein with 6 His, maltose-binding protein (MBP) and FLAG affinity tags, expressed in insect cell culture using a recombinant baculovirus (UniProt Q570C0); assay: SPR; with dicamba
[2] = molecular target: TIR1 receptor protein with 6 His, maltose-binding protein (MBP) and FLAG affinity tags, expressed in insect cell culture using a recombinant baculovirus (UniProt Q570C0); assay: SPR; with 2,4-D
[3] = molecular target: TIR1 receptor protein with 6 His, maltose-binding protein (MBP) and FLAG affinity tags, expressed in insect cell culture using a recombinant baculovirus (UniProt Q570C0); assay: SPR; with IAA (auxin)

Substance	koff [1]	koff [2]	koff [3]
biotinylated Sisymbrium orientale IAA2 wild-type degron peptide	3.29E-02 ?	1.93E-03 ?	2.08E-04 ?
biotinylated Sisymbrium orientale IAA2Δ27 degron peptide (9 amino acid deletion in the degron tail)	4.04E-02 ?	2.71E-03 ?	5.01E-04 ?
